pKd: −log10 of the molar value.
Columns and labels:
Experiment in all cases: SPR
[1] = target: Ghfp^M4 (R288H) (Neisseria gonorrhoeae strain FA1090)
[2] = target: Ghfp^M4–5 (R288H and D318G) (Neisseria gonorrhoeae strain FA1090)
[3] = target: factor H binding protein (fHbp) V3.45, recombinant, wild type (Neisseria meningitidis) (UniProt E6MV22)

complement control protein (CCP) domains 6 and 7 of fH (fH6–7) (domain or fragment)
pKd [1]: 7.80
pKd [2]: 8.70
pKd [3]: 9.00
